In publication PMC11584402 one finds Kd data, which are given here for two molecules.

By Kd is commonly meant a measure of binding affinity in units of concentration. A high value points to lower affinity.

Assay [1] has as its target MCL1-mCherry (human), Q07820. Kind of assay: probe binding assay (PBA; single-molecule pull-down with TIRF counting); mCherry-labelled anti-apoptotic protein from HEK293T crude extract immobilised on the PEG surface (anti-RFP antibody); eGFP-labelled probe in crude HEK293T extract added at 0-20 nM eGFP, 10 min; fractional occupancy of surface baits fitted to [probe]/(Kd+[probe]). The conditions noted are these: remark: other sources report otherwise.

The target in assay [2] is MCL1-mCherry (human), Q07820. Kind of assay: probe binding assay (PBA; single-molecule pull-down with TIRF counting); mCherry-labelled anti-apoptotic protein immobilised from HEK293T crude extract on a PEG surface (biotinylated anti-RFP antibody); crude HEK293T extract with the eGFP-labelled probe diluted to a range of eGFP concentrations, 10 min; fractional occupancy of surface baits at equilibrium fitted with n fixed to 1 or with the generalized Hill …. The conditions noted are these: remark: other sources report otherwise.
MCL1-mCherry (human), Q07820, sequence (Q07820 whole entry): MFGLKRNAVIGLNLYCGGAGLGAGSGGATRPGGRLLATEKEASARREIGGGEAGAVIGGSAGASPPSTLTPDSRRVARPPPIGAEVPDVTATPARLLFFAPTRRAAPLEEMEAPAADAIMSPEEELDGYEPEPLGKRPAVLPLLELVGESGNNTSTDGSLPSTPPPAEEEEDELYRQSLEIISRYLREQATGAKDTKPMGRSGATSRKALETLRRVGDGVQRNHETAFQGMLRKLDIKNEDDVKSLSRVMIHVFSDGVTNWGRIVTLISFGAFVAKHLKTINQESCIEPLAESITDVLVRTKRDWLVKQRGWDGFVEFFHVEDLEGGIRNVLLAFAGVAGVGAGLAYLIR

Assay [3] concerns the target BCLxL-mCherry (human), Q07817. Described as above. The conditions noted are these: remark: other sources report otherwise.
In assay [4] the target is BCL2-mCherry (human), P10415. The conditions noted are these: natural protein; chains chain; remark: other sources report otherwise.
BCL2-mCherry (human), P10415, sequence (P10415 whole entry): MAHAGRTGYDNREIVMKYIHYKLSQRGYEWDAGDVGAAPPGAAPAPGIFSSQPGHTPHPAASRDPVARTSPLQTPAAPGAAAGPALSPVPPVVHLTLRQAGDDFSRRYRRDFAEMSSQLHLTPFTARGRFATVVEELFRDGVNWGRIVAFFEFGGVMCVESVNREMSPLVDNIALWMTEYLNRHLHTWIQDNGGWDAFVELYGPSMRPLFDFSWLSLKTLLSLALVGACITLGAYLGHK

BCLxL-mCherry (human), Q07817, sequence (Q07817 whole entry): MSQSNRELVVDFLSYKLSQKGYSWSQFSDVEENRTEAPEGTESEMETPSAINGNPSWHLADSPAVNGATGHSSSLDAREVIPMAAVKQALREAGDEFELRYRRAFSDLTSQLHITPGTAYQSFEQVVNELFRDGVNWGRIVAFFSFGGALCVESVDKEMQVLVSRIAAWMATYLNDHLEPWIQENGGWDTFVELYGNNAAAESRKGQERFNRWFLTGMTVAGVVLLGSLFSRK

B1: NOXA-eGFP, Q13794 1-54 (natural protein)
chain: MPGKKARKNAQPSPARAPAELEVECATQLRRFGDKLNFRQKLLNLISKLFCSGT
For the molecule B1, the Kd in assay [1] and in assay [2] was 4.1 nM in each case.

B2: BAD-eGFP, Q92934 1-168 (natural protein)
chain: MFQIPEFEPSEQEDSSSAERGLGPSPAGDGPSGSGKHHRQAPGLLWDASHQQEQPTSSSHHGGAGAVEIRSRHSSYPAGTEDDEGMGEEPSPFRGRSRSAPPNLWAAQRYGRELRRMSDEFVDSFKKGLPRPKSAGTATQMRQSSSWTRVFQSWWDRNLGRGSSAPSQ
Turning to B2, the Kd in assay [3] turned out to be 2.5 nM; in assay [4], 5.5 nM.
